Experimental data as given in US5994105.

Molecular target: commercially available renin (SIGMA)
Details: scale: % remaining renin activities

Remaining renin activities (%): 48
Substance: rat acylglucosamine 2-epimerase obtained in example 4 (from UniProt P51607) (enzyme)
